# Where two headings read alike, the source gives them in different places.
# T1: ZER1 (residues 469–766) (human, UniProt Q7Z7L7 469-766)
# T1 chain: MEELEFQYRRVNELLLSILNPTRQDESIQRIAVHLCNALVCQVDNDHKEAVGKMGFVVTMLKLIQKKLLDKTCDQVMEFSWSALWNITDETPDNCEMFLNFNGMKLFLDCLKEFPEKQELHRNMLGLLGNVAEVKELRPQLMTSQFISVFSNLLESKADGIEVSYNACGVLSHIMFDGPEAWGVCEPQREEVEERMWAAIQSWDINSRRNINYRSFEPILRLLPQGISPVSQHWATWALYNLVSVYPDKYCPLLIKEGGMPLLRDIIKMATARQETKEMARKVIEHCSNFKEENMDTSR
# Key:
# Assay in all cases: ITC
# [1] = biological target: ZYG11B (residues 490–728) (UniProt Q9C0D3 490-728)
# Chain of ZYG11B (residues 490–728) (Q9C0D3 other isoform, or with tags, fused parts or gaps): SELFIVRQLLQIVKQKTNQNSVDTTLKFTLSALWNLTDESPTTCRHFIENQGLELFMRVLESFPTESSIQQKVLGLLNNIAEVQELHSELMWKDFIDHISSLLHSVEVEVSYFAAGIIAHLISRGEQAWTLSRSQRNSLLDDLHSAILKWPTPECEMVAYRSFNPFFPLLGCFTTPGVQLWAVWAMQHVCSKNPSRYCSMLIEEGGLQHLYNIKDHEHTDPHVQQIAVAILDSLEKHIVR
# [2] = biological target: T1, ZER1 (residues 469–766)
# [3] = biological target: ZYG11B (residues 490–728) N523A (UniProt Q9C0D3 490-728, N523A)
# Chain of ZYG11B (residues 490–728) N523A (Q9C0D3 other isoform, or with tags, fused parts or gaps N523A | N523A): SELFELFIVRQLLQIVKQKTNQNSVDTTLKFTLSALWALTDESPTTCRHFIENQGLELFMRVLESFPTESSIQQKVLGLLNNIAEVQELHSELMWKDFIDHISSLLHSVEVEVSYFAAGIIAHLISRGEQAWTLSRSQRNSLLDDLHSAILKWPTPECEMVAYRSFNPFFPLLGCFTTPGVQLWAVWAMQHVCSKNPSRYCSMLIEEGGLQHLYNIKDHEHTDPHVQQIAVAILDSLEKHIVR
# [4] = biological target: T1, ZER1 (residues 469–766)
# [5] = biological target: T2, ZER1 (residues 469–766) N553A (human, UniProt Q7Z7L7 469-766, N553A)
# T2 sequence (Q7Z7L7 other isoform, or with tags, fused parts or gaps N553A | N553A): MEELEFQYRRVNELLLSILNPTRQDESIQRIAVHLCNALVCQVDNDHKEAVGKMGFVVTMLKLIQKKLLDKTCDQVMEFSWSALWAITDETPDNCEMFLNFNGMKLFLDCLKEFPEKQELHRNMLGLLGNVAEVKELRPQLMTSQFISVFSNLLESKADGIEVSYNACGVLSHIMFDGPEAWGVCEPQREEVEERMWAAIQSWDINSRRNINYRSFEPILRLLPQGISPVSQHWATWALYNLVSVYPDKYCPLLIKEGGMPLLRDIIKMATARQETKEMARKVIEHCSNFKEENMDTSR
# [6] = biological target: T2, ZER1 (residues 469–766) N553A; remark: listed apart in the source
binder,measurement,setting,value
"AFLHVGQD (Printed N-terminus SELF is read as vector Ser plus native E490-L491-F492 (numbering from the 7XYW entity, 485-728 starting AQLGTELF); His-SUMO tag left out)",Kd,[1],7.1 µM
AFLHVGQD (Printed N-terminus MEEL is read as start Met plus native residues from 469 (by analogy with SELF in ZYG11B); C-terminal His tag of pNIC-CH left out),Kd,[2],1.6 µM
"CFLHVGQD (Printed N-terminus SELF is read as vector Ser plus native E490-L491-F492 (numbering from the 7XYW entity, 485-728 starting AQLGTELF); His-SUMO tag left out)",Kd,[1],3 µM
CFLHVGQD,Kd,[3],2.9 µM
SGRGKQGGKA (Printed N-terminus MEEL is read as start Met plus native residues from 469 (by analogy with SELF in ZYG11B); C-terminal His tag of pNIC-CH left out) [free H2A peptide (sequence: SGRGKQGGKA)],Kd,[4],3.8 µM
AFLHVGQD (N-terminus MEEL read as start Met plus native residues from 469; His tag left out),Kd,[5],7.6 µM
CFLHVGQD (Printed N-terminus MEEL is read as start Met plus native residues from 469 (by analogy with SELF in ZYG11B); C-terminal His tag of pNIC-CH left out),Kd,[2],3.9 µM
AFLHVGQD,Kd,[3],> 50 µM
SFLHVGQD (N-terminus MEEL read as start Met plus native residues from 469; His tag left out),Kd,[6],7.1 µM
TFLHVGQD (Printed N-terminus MEEL is read as start Met plus native residues from 469 (by analogy with SELF in ZYG11B); C-terminal His tag of pNIC-CH left out),Kd,[2],3.1 µM
SFLHVGQD (Printed N-terminus MEEL is read as start Met plus native residues from 469 (by analogy with SELF in ZYG11B); C-terminal His tag of pNIC-CH left out),Kd,[2],1.3 µM
GFLHVGQD (Printed N-terminus MEEL is read as start Met plus native residues from 469 (by analogy with SELF in ZYG11B); C-terminal His tag of pNIC-CH left out),Kd,[2],4.2 µM
TFLHVGQD (N-terminus MEEL read as start Met plus native residues from 469; His tag left out),Kd,[5],7.9 µM
"SFLHVGQD (Printed N-terminus SELF is read as vector Ser plus native E490-L491-F492 (numbering from the 7XYW entity, 485-728 starting AQLGTELF); His-SUMO tag left out)",Kd,[1],6.8 µM
SFLHVGQD,Kd,[3],4.9 µM
"GFLHVGQD (Printed N-terminus SELF is read as vector Ser plus native E490-L491-F492 (numbering from the 7XYW entity, 485-728 starting AQLGTELF); His-SUMO tag left out)",Kd,[1],2.5 µM
